One may read the Kd as the equilibrium constant for the complex coming apart. Low readings indicate a tighter complex, high ones a looser complex. In general, koff refers to the first-order rate constant of dissociation. The term kon denotes the second-order rate constant of association. Read a high kon as faster complex formation.

Assay [1] concerns the target Clade C DU172.17 gp120 protein (HIV-1 Clade C, DU172.17). Nature of the assay: BLI (Octet), IgG on anti-hIgG Fc sensor, gp120 analyte, 1:1 fit.
Assay [2] has as its target Clade B BaL gp120 protein (HIV-1 Clade B, BaL). The assay is described as above.
For assay [3], the target named is Clade C DU172.17 gp120 protein (HIV-1 Clade C, DU172.17). Description: BLI (Octet), IgG on anti-hIgG Fc sensor, gp120 analyte, 1:1 fit; average of 4 runs. (BLI is a label-free optical method that tracks binding on a fibre tip over time.)
Assay [4] concerns the target Clade B BaL gp120 protein (HIV-1 Clade B, BaL). Described as above.

B1: Germ6 (antibody, V domains shown)
VH: ADLVQSGAVVKKPGDSVRVSCEAQGYRFPDYIIHWIRRAPGQGPEWMGWMNPMGGQVNIPWKFQGRVSMTRDTSIETAYLDLRGLKSDDTAVYYCVRDRSNGSGKRFESSNWFLDLWGRGTAVTVQS
VL: QSALTQPRSVSGSPGQSVTISCTGTHNLVSWCQHQPGRAPKLLIYDFNKRPSGVPDRFSGSGSGGTASLTISGLQDEDDAEYFCWAYEAFGGGTKLTVL
Consider B1, for which, in assay [1], the Kd came to 19.3 nM, the fold (KD vs average of 4 runs of L1A2) came out at 0.76 fold, the koff worked out at 0.000466 s⁻¹ and the kon amounted to 24100 M⁻¹ s⁻¹. In addition, in assay [2], the Kd was 0.92 nM, the fold (KD vs average of 4 runs of L1A2) was 1.7 fold, the koff stood at 7.11e-05 s⁻¹ and the kon came out at 77100 M⁻¹ s⁻¹.

B2: NVS49-L1A2 (antibody, V domains shown)
VH: ADLVQSGAVVKKPGDSVRISCEAQGYRFPDYIIHWIRRAPGQGPEWMGWMNPMGGQVNIPWKFQGRVSMTRDTSIETAFLDLRGLKSDDTAVYYCVRDRSNGSGKRFESSNWFLDLWGRGTAVTIQS
VL: QSALTQPRSVSASPGQSVTISCTGTHNLVSWCQHQPGRAPKLLIYDFNKRPSGVPDRFSGSGSGGTASLTITGLQDDDDAEYFCWAYEAFGGGTKLTVL
With B2, in assay [3], the Kd was 25.4 nM, the fold (KD vs average of 4 runs of L1A2) was 1 fold, the koff was determined as 0.000526 s⁻¹ and the kon stood at 21100 M⁻¹ s⁻¹. For the same molecule, in assay [4], the Kd amounted to 0.54 nM, the fold (KD vs average of 4 runs of L1A2) came out at 1 fold, the koff is 4.41e-05 s⁻¹ and the kon came to 81300 M⁻¹ s⁻¹.

B3: Germ23 (antibody, V domains shown)
VH: QVQLVQSGAEVKKPGASVKVSCEASGYRFPDYIIHWIRRAPGQGPEWMGWMNPMGGQVNIPWKFQGRVSMTRDTSIETAYMELRGLRSDDTAVYYCVRDRSNGSGKRFESSNWFLDLWGRGTLVTVSS
VL: QSALTQPRSVSGSPGQSVTISCTGTHNLVSWCQHHPGKAPKLMIYDFNKRPSGVPDRFSGSGSGGTASLTISGLQAEDEAEYFCWAYEAFGGGTKLTVL
On to B3, for which, in assay [1], the Kd stood at 22.4 nM, the fold (KD vs average of 4 runs of L1A2) amounted to 0.88 fold, the koff is 0.000368 s⁻¹ and the kon is 16400 M⁻¹ s⁻¹. Further, in assay [2], the Kd came out at 0.97 nM, the fold (KD vs average of 4 runs of L1A2) amounted to 1.79 fold, the off-rate (koff) was 7.66e-05 s⁻¹ and the kon was 79100 M⁻¹ s⁻¹.

B4: NglycoNDplus6 (antibody, V domains shown)
VH: ADLVQSGAVVKKPGDSVRISCEAQGYTFPDYIIHWIRRAPGQGPEWMGWMNPMGGQVNIPWKFQGRVSMTRDTSIETAFLDLRGLKSDDTAVYYCVRDRGDGSRRHFDSSNWFLDLWGRGTAVTIQS
VL: QSALTQPRSVSASPGQSVTISCTGTHNLVSWCQHQPGRAPKLLIYDFNKRPSGVPDRFSGSGSGGTASLTITGLQDDDDAEYFCWAYEAFGGGTKLTVL
For B4, in assay [2], the Kd is 11.3 nM, the fold (KD vs average of 4 runs of L1A2) was determined as 20.9 fold, the koff turned out to be 0.0006 s⁻¹ and the kon was 53300 M⁻¹ s⁻¹.

B5: CysCV (antibody, V domains shown)
VH: ADLVQSGAVVKKPGDSVRISCEAQGYRFPDYIIHWIRRAPGQGPEWMGWMNPMGGQVNIPWKFQGRVSMTRDTSIETAFLDLRGLKSDDTAVYYCVRDRSNGSGKRFESSNWFLDLWGRGTAVTIQS
VL: QSALTQPRSVSASPGQSVTISCTGTHNLVSWVQHQPGRAPKLLIYDFNKRPSGVPDRFSGSGSGGTASLTITGLQDDDDAEYFCWAYEAFGGGTKLTVL
As for B5, in assay [1], the Kd worked out at 26.7 nM, the fold (KD vs average of 4 runs of L1A2) is 1.05 fold, the koff was found to be 0.000495 s⁻¹ and the kon is 18500 M⁻¹ s⁻¹. In assay [2], the Kd was 0.82 nM, the fold (KD vs average of 4 runs of L1A2) stood at 1.52 fold, the koff came out at 6.4e-05 s⁻¹ and the kon came to 77900 M⁻¹ s⁻¹.

B6: Hydro2 (antibody, V domains shown)
VH: ADLVQSGAVVKKPGDSVRISCEAQGYRFPDYIIHWIRRAPGQGPEWMGWMNPMGGQVNIPQKFQGRVSMTRDTSIETAFLDLRGLKSDDTAVYYCVRDRSNGSGKRFESSNWFLDLWGRGTAVTIQS
VL: QSALTQPRSVSASPGQSVTISCTGTHNLVSWCQHQPGRAPKLLIYDFNKRPSGVPDRFSGSGSGGTASLTITGLQDDDDAEYFCWAYENFGGGTKLTVL
Turning to B6, in assay [1], the Kd turned out to be 55.5 nM, the fold (KD vs average of 4 runs of L1A2) is 2.18 fold, the koff is 0.000974 s⁻¹ and the kon worked out at 17600 M⁻¹ s⁻¹. In addition, in assay [2], the Kd was found to be 0.96 nM, the fold (KD vs average of 4 runs of L1A2) was 1.77 fold, the koff came out at 7.18e-05 s⁻¹ and the kon was determined as 74700 M⁻¹ s⁻¹.

B7: NglycoND (antibody, V domains shown)
VH: ADLVQSGAVVKKPGDSVRISCEAQGYRFPDYIIHWIRRAPGQGPEWMGWMNPMGGQVNIPWKFQGRVSMTRDTSIETAFLDLRGLKSDDTAVYYCVRDRSDGSGKRFESSNWFLDLWGRGTAVTIQS
VL: QSALTQPRSVSASPGQSVTISCTGTHNLVSWCQHQPGRAPKLLIYDFNKRPSGVPDRFSGSGSGGTASLTITGLQDDDDAEYFCWAYEAFGGGTKLTVL
Regarding B7, in assay [1], the Kd was 368 nM, the fold (KD vs average of 4 runs of L1A2) worked out at 14.5 fold, the koff amounted to 0.0183 s⁻¹ and the kon is 49700 M⁻¹ s⁻¹. In assay [2], the Kd amounted to 18.7 nM, the fold (KD vs average of 4 runs of L1A2) was 34.5 fold, the koff turned out to be 0.00128 s⁻¹ and the kon is 68400 M⁻¹ s⁻¹.

B8: NglycoSA (antibody, V domains shown)
VH: ADLVQSGAVVKKPGDSVRISCEAQGYRFPDYIIHWIRRAPGQGPEWMGWMNPMGGQVNIPWKFQGRVSMTRDTSIETAFLDLRGLKSDDTAVYYCVRDRSNGAGKRFESSNWFLDLWGRGTAVTIQS
VL: QSALTQPRSVSASPGQSVTISCTGTHNLVSWCQHQPGRAPKLLIYDFNKRPSGVPDRFSGSGSGGTASLTITGLQDDDDAEYFCWAYEAFGGGTKLTVL
For B8, in assay [1], the Kd was 18.4 nM, the fold (KD vs average of 4 runs of L1A2) was found to be 0.72 fold, the koff came out at 0.000303 s⁻¹ and the kon amounted to 16500 M⁻¹ s⁻¹. Also, in assay [2], the Kd is 0.84 nM, the fold (KD vs average of 4 runs of L1A2) came to 1.54 fold, the koff came out at 6.12e-05 s⁻¹ and the kon was found to be 73300 M⁻¹ s⁻¹.

B9: Germ17 (antibody, V domains shown)
VH: QVDLVQSGAVVKKPGDSVRVSCEAQGYRFPDYIIHWIRRAPGQGPEWMGWMNPMGGQVNIPWKFQGRVSMTRDTSIETAYMDLRGLRSDDTAVYYCVRDRSNGSGKRFESSNWFLDLWGRGTLVTVSS
VL: QSALTQPRSVSGSPGQSVTISCTGTHNLVSWCQHHPGKAPKLMIYDFNKRPSGVPDRFSGSGSGGTASLTISGLQAEDEAEYFCWAYEAFGGGTKLTVL
B9: in assay [1], the Kd was 17.5 nM, the fold (KD vs average of 4 runs of L1A2) worked out at 0.69 fold, the koff came out at 0.000331 s⁻¹ and the kon stood at 18900 M⁻¹ s⁻¹. In assay [2], the dissociation constant Kd stood at 0.65 nM, the fold (KD vs average of 4 runs of L1A2) turned out to be 1.2 fold, the koff came to 5.15e-05 s⁻¹ and the kon is 79300 M⁻¹ s⁻¹.

B10: Germ12_NglycoSA_CysCA (antibody, V domains shown)
VH: QVDLVQSGAVVKKPGDSVRVSCEAQGYRFPDYIIHWIRRAPGQGPEWMGWMNPMGGQVNIPWKFQGRVSMTRDTSIETAYMDLRGLRSDDTAVYYCVRDRSNGAGKRFESSNWFLDLWGRGTLVTVSS
VL: QSALTQPRSVSGSPGQSVTISCTGTHNLVSWAQHQPGRAPKLLIYDFNKRPSGVPDRFSGSGSGGTASLTISGLQDEDDAEYFCWAYEAFGGGTKLTVL
Consider B10, for which, in assay [1], the Kd came to 18.1 nM, the fold (KD vs average of 4 runs of L1A2) was 0.71 fold, the koff is 0.000337 s⁻¹ and the kon was determined as 18600 M⁻¹ s⁻¹. In assay [2], the Kd is 0.63 nM, the fold (KD vs average of 4 runs of L1A2) is 1.16 fold, the koff was 4.92e-05 s⁻¹ and the kon turned out to be 78300 M⁻¹ s⁻¹.

B11: Germ12 (antibody, V domains shown)
VH: QVDLVQSGAVVKKPGDSVRVSCEAQGYRFPDYIIHWIRRAPGQGPEWMGWMNPMGGQVNIPWKFQGRVSMTRDTSIETAYMDLRGLRSDDTAVYYCVRDRSNGSGKRFESSNWFLDLWGRGTLVTVSS
VL: QSALTQPRSVSGSPGQSVTISCTGTHNLVSWCQHQPGRAPKLLIYDFNKRPSGVPDRFSGSGSGGTASLTISGLQDEDDAEYFCWAYEAFGGGTKLTVL
Turning to B11, in assay [1], the Kd came to 21.5 nM, the fold (KD vs average of 4 runs of L1A2) worked out at 0.85 fold, the koff was found to be 0.000438 s⁻¹ and the kon came to 20400 M⁻¹ s⁻¹. Also, in assay [2], the Kd was determined as 0.88 nM, the fold (KD vs average of 4 runs of L1A2) was 1.62 fold, the koff was found to be 7.09e-05 s⁻¹ and the kon turned out to be 80800 M⁻¹ s⁻¹.

B12: CysCA (antibody, V domains shown)
VH: ADLVQSGAVVKKPGDSVRISCEAQGYRFPDYIIHWIRRAPGQGPEWMGWMNPMGGQVNIPWKFQGRVSMTRDTSIETAFLDLRGLKSDDTAVYYCVRDRSNGSGKRFESSNWFLDLWGRGTAVTIQS
VL: QSALTQPRSVSASPGQSVTISCTGTHNLVSWAQHQPGRAPKLLIYDFNKRPSGVPDRFSGSGSGGTASLTITGLQDDDDAEYFCWAYEAFGGGTKLTVL
In the case of B12, in assay [1], the Kd worked out at 19.6 nM, the fold (KD vs average of 4 runs of L1A2) turned out to be 0.77 fold, the koff was 0.000446 s⁻¹ and the kon was 22800 M⁻¹ s⁻¹. Moreover, in assay [2], the Kd turned out to be 1.1 nM, the fold (KD vs average of 4 runs of L1A2) was found to be 2.03 fold, the koff came to 8.01e-05 s⁻¹ and the kon was determined as 71900 M⁻¹ s⁻¹.

B13: Germ18 (antibody, V domains shown)
VH: QVQLVQSGAEVKKPGASVKVSCEASGYRFPDYIIHWIRRAPGQGPEWMGWMNPMGGQVNIPWKFQGRVSMTRDTSIETAYMELRGLRSDDTAVYYCVRDRSNGSGKRFESSNWFLDLWGRGTLVTVSS
VL: QSALTQPRSVSGSPGQSVTISCTGTHNLVSWCQHQPGRAPKLLIYDFNKRPSGVPDRFSGSGSGGTASLTISGLQDEDDAEYFCWAYEAFGGGTKLTVL
As for B13, in assay [1], the Kd worked out at 21.3 nM, the fold (KD vs average of 4 runs of L1A2) came to 0.84 fold, the koff came out at 0.000415 s⁻¹ and the kon is 19500 M⁻¹ s⁻¹. In assay [2], the Kd came out at 0.98 nM, the fold (KD vs average of 4 runs of L1A2) was 1.81 fold, the koff was 7.09e-05 s⁻¹ and the kon is 72200 M⁻¹ s⁻¹.
